Source: IntAct's records for PubMed 29433439

B1: Phosphocholine transferase AnkX (Legionella pneumophila subsp. pneumophila), Q5ZXN6 (parent)
chain: MVKIMPNLPGLYFLQAYPSEEIWRLFVDGRFWSKENGWRGYESREPGCLNAALESLCSIALQVEKSGEEFELSVDLIKRIHKKCGKKVEELQEKNPGELRTDEPVSFGIPAGRASIKGIEEFLSLVFLTEGGAEFGPGKAGPFGPRFDKNYFKNLNPEQIPDLAKQIYFDMCKYGHSNTNHFYLAVMKNVDVYLEKITQSYNKEIKTAETLDEKLKIIVKHIRMYEVLHPFRDANGRTFVNNLLNILLMQQGLPPATFYEPNVFDLYSAEELVVVVKEAIFNTVEIIEQSKRKTPITLYGYHSSLEEQTKFRDMLDSPSYEKIKHMDFSDLNPEKLHLKTQKCLSSLNEQYPLHRGAIYLSDPGEIKLLLSNRNESQINQQIEQGAPPIYVGKTPAHLAVISGNMAMLDELIAKKADLSLQDYDGKTALHYAAECGNMQIMGKILKVVLSQEDAIKVLNIKDNHGKTAFHYAAEFGTPELISALTTTEVIQINEPDNSGSSAITLAYKNHKLKIFDELLNSGADISDELLDAIWARKDKETLGKIIAKNEKILLNKEAFRIAISLGSVSLVKKFLRAGVDIDIPLTKDKATPLMLSINSGNPKLVSYLLKKGANTRLTDTSGNSVLHYVFYSKAENREALANIITEKDKKLINQPNANGNPPLYNAVVVNDLKMATILLEMGARVDFEDRLGNNILHSAMRRCDLPIILDIVKKDSTLLHKRNSERRNPFHQALHEMHTFPSSKETEEIHFMNLSDLLLKEGVDLNKKDIKGKTILDIALSKQYFHLCVKLMKAGAHTNISSPSKFLKNSDANSILERPFKFKNDLKKELDNNPLIAMAQINDLYVQIKNNRIRTPTGYAPKEGVSFFKGKSNDAKAHDEVLSVLKELYDSKLTEMLGNLPGEGLEEIKRSQKFFDGELKLLIKNQDISRKVDKKSIQEAVGTSLKLKW
partner: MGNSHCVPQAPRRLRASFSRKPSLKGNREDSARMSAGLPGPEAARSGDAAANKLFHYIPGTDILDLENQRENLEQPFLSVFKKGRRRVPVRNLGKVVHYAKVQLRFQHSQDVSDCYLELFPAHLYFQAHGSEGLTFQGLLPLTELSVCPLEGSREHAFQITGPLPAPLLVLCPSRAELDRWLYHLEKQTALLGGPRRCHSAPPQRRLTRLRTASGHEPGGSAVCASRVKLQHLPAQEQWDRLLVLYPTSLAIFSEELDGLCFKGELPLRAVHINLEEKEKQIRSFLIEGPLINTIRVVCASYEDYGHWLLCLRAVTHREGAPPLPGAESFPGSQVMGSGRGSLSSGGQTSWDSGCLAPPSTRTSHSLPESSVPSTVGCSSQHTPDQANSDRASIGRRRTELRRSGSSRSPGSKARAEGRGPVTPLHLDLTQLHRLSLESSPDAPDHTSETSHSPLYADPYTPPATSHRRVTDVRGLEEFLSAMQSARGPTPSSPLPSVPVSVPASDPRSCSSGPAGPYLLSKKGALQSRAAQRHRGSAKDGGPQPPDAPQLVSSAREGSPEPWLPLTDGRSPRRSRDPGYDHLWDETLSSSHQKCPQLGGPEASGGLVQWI

Variants of: B1
Conditions: with pkhn1_human PLEKHN1, Q494U1

| Variant | effect of a mutation on the interaction |
| --- | --- |
| H229A | decreasing interaction |
